Reference: patent US7091311 (GlaxoSmithKline, dated 2006)
Where two headings read alike, the source gives them in different places. Each block holds one binder with its values, some of them ahead of it. Bridges are numbered along the chain shown (N, C = ends). Where no end group is shown, it is not given here.

Legend:
[1] = target: T1, full length human TPO-R (human, UniProt P40238 26-635); experiment: cell-based or functional assay
T1 sequence (looked up): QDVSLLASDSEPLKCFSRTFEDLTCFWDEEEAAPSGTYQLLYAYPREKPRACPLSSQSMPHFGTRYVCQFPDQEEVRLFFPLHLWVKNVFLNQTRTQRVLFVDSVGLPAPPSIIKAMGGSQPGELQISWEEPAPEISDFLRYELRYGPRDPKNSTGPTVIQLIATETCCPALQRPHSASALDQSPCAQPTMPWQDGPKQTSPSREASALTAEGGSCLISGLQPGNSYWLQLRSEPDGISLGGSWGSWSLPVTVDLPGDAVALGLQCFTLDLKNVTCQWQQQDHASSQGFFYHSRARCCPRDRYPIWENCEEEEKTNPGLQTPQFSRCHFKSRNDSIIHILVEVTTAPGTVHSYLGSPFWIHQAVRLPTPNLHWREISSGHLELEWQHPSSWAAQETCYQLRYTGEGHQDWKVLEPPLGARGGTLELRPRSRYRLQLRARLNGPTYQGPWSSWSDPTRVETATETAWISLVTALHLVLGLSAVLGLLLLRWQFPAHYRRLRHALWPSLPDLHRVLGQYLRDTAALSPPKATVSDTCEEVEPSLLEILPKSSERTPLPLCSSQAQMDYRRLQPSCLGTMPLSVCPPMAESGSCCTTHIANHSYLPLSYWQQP

[2] = target: T2, soluble TPO-R (UniProt P40238 26-491); experiment: competition ELISA vs MBP-TPO156
T2 construct: extracellular domain; Immobilized through anti-HPAP antibody Ab179; also called thrombopoietin receptor; c-mpl
Description: (§1) The amount of alkaline phosphatase in each well was then determined using standard methods.
(§2) In this example cyclized compounds were subjected to three assays. First, $IC50$ valves were obtained as described above.

[3] = target: T1, full length human TPO-R; experiment: cell-based or functional assay; remark: listed apart in the source
[4] = target: T2, soluble TPO-R; experiment: competition ELISA vs MBP-TPO156; remark: listed apart in the source
Description: as §1, §2

[5] = target: T1, full length human TPO-R; experiment: cell-based or functional assay; remark: listed apart in the source
[6] = target: T3, soluble TPO-R (UniProt P40238 26-491); experiment: competition ELISA vs MBP-TPO156
[7] = target: T1, full length human TPO-R; experiment: cell-based or functional assay; remark: listed apart in the source
[8] = target: T2, soluble TPO-R; experiment: competition ELISA vs MBP-TPO156; remark: listed apart in the source
[9] = target: T3, soluble TPO-R; experiment: equilibrium binding ELISA, MBP-TPO or lacI-peptide tracer

EC50 cell proliferation [1]: ≤ 500 nM
EC50 microphysiometer [1]: ≤ 500 nM
IC50 [2]: ≤ 500 nM
Binder: ADGPTLREWISFC (also: further groups not given here, structure printed only as a drawing) [[drawing CHEM-US-00004] (SEQ ID NO:173)]

EC50 cell proliferation [3]: ~200000 nM
EC50 microphysiometer [3]: ≤ 200000 nM
IC50 [4]: ≤ 500 nM
Binder: CADGPTLREWISAC (also: cyclized, mode not given here) [SEQ ID NO:12 cyclized, F - A]

EC50 cell proliferation [5]: ≤ 500 nM
IC50 [6]: ≤ 500 nM
Binder: ADGPTLREWISFCG (also: further groups not given here) [SEQ ID NO:173 compound, C-term, Gly addition]

EC50 cell proliferation [7]: ≤ 500 nM
EC50 microphysiometer [7]: ≤ 500 nM
IC50 [8]: ≤ 500 nM
Binder: H-CADGPTLREWISFC-NH2 (disulfide 1-14 (inferred), also called [drawing CHEM-US-00034]) [cyclized monomer (SEQ ID NO:12)]

IC50 [9]: ≤ 500 nM
Binder: GGCTLREWLHGGFCGG (free synthetic peptide) [G G C T L R E W L H G G F C G G]
